As a reminder, the Kd is the equilibrium constant for the complex coming apart. High values mean a looser complex, low ones a tighter complex. In general, koff refers to the rate constant with which the complex falls apart. A low value points to slow dissociation. A word on the kon: it is a measure of how fast the partners come together. Read a low kon as slower complex formation.

We go through 3 molecules from patent US20200199213A1 (Eli Lilly, published 2020).

What all share (assay): SPR, Biacore T200; Ab captured on Human Fab Binder, complex injected; pH 7.4, 25 C
A general note: SPR reads the build-up and loss of mass on a sensor chip optically.

Test [1] deals with T1, human ANGPTL3/8 complex (human, UniProt Q9Y5C1 17-460; Q6UXH0 22-198, limits assumed).
T1 construct: also called hANGPTL3/8 complex; ANGTPL3/8 complex
T1 sequence 1: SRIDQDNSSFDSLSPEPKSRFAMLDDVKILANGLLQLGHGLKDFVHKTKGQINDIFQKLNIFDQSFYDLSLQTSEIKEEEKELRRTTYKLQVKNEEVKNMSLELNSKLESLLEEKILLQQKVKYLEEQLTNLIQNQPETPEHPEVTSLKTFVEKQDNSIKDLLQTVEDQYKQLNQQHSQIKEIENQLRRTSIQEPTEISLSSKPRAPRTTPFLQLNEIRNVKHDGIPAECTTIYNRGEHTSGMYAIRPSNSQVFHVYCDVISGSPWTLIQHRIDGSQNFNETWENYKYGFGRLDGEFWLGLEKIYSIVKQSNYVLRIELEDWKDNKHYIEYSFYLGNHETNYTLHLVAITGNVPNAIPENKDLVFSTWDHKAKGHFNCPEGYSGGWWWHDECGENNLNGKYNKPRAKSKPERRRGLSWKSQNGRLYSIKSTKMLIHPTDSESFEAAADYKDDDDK
T1 sequence 2: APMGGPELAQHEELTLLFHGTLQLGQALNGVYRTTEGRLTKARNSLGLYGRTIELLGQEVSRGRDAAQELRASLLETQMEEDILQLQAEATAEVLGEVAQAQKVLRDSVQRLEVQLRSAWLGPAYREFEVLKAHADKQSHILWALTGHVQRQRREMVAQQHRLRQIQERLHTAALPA

The target in test [2] is T2, mouse ANGPTL3/8 complex (mouse, UniProt Q9R182 17-455; Q8R1L8 16-198, limits assumed).
T2 sequence (looked up) 1: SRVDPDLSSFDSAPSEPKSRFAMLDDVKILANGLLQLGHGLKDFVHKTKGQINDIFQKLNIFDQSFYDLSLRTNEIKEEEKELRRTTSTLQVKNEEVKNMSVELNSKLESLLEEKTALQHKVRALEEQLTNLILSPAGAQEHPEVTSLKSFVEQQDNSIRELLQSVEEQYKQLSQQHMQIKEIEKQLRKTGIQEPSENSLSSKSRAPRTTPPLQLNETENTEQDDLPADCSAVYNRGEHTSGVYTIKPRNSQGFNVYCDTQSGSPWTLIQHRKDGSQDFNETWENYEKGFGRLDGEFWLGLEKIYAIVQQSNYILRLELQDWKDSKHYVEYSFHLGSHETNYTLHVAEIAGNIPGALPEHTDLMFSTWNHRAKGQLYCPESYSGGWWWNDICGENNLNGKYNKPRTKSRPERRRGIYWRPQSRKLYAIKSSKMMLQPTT
T2 sequence (looked up) 2: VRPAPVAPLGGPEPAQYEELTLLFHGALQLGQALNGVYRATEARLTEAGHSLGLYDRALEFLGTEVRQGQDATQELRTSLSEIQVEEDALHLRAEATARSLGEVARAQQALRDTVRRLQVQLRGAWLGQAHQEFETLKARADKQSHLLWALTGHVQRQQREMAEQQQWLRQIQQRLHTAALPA

In test [3] the target is T3, cynomolgus ANGPTL3/8 complex (cynomolgus, UniProt A0A2K5UDC5 17-460; A0A2K5WWS3 22-198).
T3 construct: also called cyno ANGPTL3/8
T3 sequence 1: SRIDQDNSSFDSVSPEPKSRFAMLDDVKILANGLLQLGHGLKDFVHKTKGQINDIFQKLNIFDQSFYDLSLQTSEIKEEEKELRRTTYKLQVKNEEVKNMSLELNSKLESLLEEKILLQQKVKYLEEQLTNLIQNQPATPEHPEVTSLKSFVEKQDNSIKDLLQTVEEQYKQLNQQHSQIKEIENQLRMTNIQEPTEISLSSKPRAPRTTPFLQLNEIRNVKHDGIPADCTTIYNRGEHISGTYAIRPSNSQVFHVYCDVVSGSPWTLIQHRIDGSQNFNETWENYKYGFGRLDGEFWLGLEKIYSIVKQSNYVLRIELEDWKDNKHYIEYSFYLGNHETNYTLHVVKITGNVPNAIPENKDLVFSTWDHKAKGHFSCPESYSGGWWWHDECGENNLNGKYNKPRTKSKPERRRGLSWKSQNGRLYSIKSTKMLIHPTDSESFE
T3 sequence 2: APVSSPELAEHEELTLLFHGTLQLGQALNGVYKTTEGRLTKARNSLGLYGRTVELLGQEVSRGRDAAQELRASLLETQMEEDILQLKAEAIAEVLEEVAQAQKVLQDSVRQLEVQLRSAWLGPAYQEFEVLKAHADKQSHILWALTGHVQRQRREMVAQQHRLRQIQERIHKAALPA

Test [4] addresses T1, human ANGPTL3/8 complex. This is another data set of the same source.
Test [5] addresses T2, mouse ANGPTL3/8 complex. This is another data set of the same source.
Test [6] addresses T1, human ANGPTL3/8 complex. The source holds these as a separate data set.
In test [7] the target is T2, mouse ANGPTL3/8 complex. This is another data set of the same source.
Test [8] addresses T3, cynomolgus ANGPTL3/8 complex. This is another data set of the same source.

Substitutions are numbered along the chain they refer to. In names and notes the source's numbering stands. Where two headings read alike, the source gives them in different places.

B1: anti-ANGPTL3/8 complex Ab having a LC of SEQ ID NO:5 and a HC of SEQ ID NO:6 (antibody, human IgG4 S228P, kappa, F234A L235A, V domains shown)
VH: QVTLKESGPTLVKPTQTLTLTCTFSGFSLSISGVGVGWIRQPPGKALEWLALIYRNDDKRYSPSLKSRLTITKDTSKNQVVLTLTNMDPVDTATYYCARTYSSGWYGNWFDPWGQGTLVTVSS
VL: DIVMTQTPLSLPVTPGEPASISCRSSQSLLDSDDGNTYLDWYLQKPGQSPQLLIYMLSYRASGVPDRFSGSGSGTDFTLKISRVEAEDVGIYYCMQRIEFPLTFGGGTKVEIKR
notes: In the ELISA assays tested as IgG from CHO supernatants; also called the Ab
Take B1: the Kd in test [1] is 0.135 nM; in test [2], 0.366 nM; in test [3] it was 0.213 nM. Further, the results for the koff in test [1], in test [2] and in test [3] were 6.31e-05 s⁻¹, 0.000172 s⁻¹ and 9.91e-05 s⁻¹, respectively. Moreover, the kon in test [1] turned out to be 477000 M⁻¹ s⁻¹; in test [2], 475000 M⁻¹ s⁻¹; in test [3], 491000 M⁻¹ s⁻¹.

B2: Ab with LC variant having a D31S mutation (SEQ ID NO:21) and a HC of SEQ ID NO:6 (antibody, human IgG4 S228P, kappa, F234A L235A, V domains shown)
VH: B1 VH
VL: B1 VL with D31S
notes: also called D31S Variant Ab; D31S Ab
In test [4], B2 registered a Kd of 0.116 nM, a koff of 5.75e-05 s⁻¹ and a kon of 497000 M⁻¹ s⁻¹. In test [5], this molecule returned a Kd of 0.218 nM, a koff of 0.000108 s⁻¹ and a kon of 496000 M⁻¹ s⁻¹.

B3: Ab with LC variant having a D33A mutation (SEQ ID NO:22) and a HC of SEQ ID NO:6 (antibody, human IgG4 S228P, kappa, F234A L235A, V domains shown)
VH: B1 VH
VL: B1 VL with D33A
notes: also called D33A Variant Ab; D33A Ab
For B3, the Kd worked out at 0.201 nM in test [6], 0.68 nM in test [7] and 0.609 nM in test [8]. Moreover, the results for the koff in test [6], in test [7] and in test [8] were 9.19e-05 s⁻¹, 0.000347 s⁻¹ and 0.000265 s⁻¹, respectively. Moreover, the kon was 457000 M⁻¹ s⁻¹ in test [6], 515000 M⁻¹ s⁻¹ in test [7] and 435000 M⁻¹ s⁻¹ in test [8].
